Reference: patent US20220096548A1
Values belong to the binder of their own block, whether it stands above or below them.

How the values were obtained:
[1] = molecular target: human IL-6 (human) (UniProt P05231); assay: cell-based or functional assay
[2] = molecular target: IL-6R expressed on HEK-Blue IL-6 reporter cells (UniProt P08887); assay: cell-based or functional assay
Chain of UniProt P08887 (P08887 20-468 limits assumed): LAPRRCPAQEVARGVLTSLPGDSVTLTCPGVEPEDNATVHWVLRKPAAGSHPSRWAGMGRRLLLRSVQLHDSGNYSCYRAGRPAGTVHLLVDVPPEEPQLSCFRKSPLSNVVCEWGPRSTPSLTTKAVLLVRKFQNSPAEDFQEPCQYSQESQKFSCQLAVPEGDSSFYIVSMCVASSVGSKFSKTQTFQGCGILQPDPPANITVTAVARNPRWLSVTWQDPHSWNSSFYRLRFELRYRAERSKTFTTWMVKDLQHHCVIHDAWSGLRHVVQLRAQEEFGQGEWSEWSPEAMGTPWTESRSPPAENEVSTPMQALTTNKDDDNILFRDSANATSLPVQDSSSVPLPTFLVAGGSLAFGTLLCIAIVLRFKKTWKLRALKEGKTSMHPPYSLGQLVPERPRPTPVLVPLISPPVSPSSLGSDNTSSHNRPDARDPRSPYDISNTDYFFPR

Chain of UniProt P05231 (P05231 30-212 limits assumed): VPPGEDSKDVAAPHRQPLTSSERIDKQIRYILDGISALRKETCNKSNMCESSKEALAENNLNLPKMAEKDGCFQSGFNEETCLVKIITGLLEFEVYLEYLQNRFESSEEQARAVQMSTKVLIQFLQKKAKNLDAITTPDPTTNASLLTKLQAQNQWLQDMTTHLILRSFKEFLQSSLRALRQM

- inhibition of IL-6 signaling (SEAP production by HEK-Blue IL-6 reporter cells, 2 ng/ml human IL-6) [1]: 100%
B1: scFv antibody derived from reference Antibody 2 (binding to IL-6), fused with an Fc fragment of human IgG1 (Fc fusion, not shown: a dimerising Fc or GST)
scFv: EIVLTQSPATLSLSPGERATLSCSASISVSYMYWYQQKPGQAPRLLIYDMSNLASGIPARFSGSGSGTDFTLTISSLEPEDFAVYYCMQWSGYPYTFGGGTKVEIKGGGGSGGGGSGGGGSEVQLVESGGGLVQPGGSLRLSCAASGFTFSPFAMSWVRQAPGKGLEWVAKISPGGSWTYYSDTVTGRFTISRDNAKNSLYLQMNSLRAEDTAVYYCARQLWGYYALDIWGQGTTVTVSS

- inhibition of IL-6 signaling (SEAP production by HEK-Blue IL-6 reporter cells, 2 ng/ml human IL-6) [2]: < 60%
B2: scFv antibody derived from reference Antibody 4 (binding to IL-6R), fused with an Fc fragment of human IgG1 (Fc fusion, not shown: a dimerising Fc or GST)
scFv: QVQLQESGPGLVRPSQTLSLTCTVSGYSITSDHAWSWVRQPPGRGLEWIGYISYSGITTYNPSLKSRVTMLRDTSKNQFSLRLSSVTAADTAVYYCARSLARTTAMDYWGQGSLVTVSSGGGGSGGRASGGGGSGGGGSDIQMTQSPSSLSASVGDRVTITCRASQDISSYLNWYQQKPGKAPKLLIYYTSRLHSGVPSRFSGSGSGTDFTFTISSLQPEDIATYYCQQGNTLPYTFGQGTKVEIK

- inhibition of IL-6 signaling (SEAP production by HEK-Blue IL-6 reporter cells, 2 ng/ml human IL-6) [2]: 100%
B3: scFv antibody derived from reference Antibody 1 (binding to IL-6R), fused with an Fc fragment of human IgG1 (Fc fusion, not shown: a dimerising Fc or GST)
scFv: DIQMTQSPSSVSASVGDRVTITCRASQGISSWLAWYQQKPGKAPKLLIYGASSLESGVPSRFSGSGSGTDFTLTISSLQPEDFASYYCQQANSFPYTFGQGTKLEIKGGGGSGGGGSGGGGSEVQLVESGGGLVQPGRSLRLSCAASRFTFDDYAMHWVRQAPGKGLEWVSGISWNSGRIGYADSVKGRFTISRDNAENSLFLQMNGLRAEDTALYYCAKGRDSFDIWGQGTMVTVSS

- inhibition of IL-6 signaling (SEAP production by HEK-Blue IL-6 reporter cells, 2 ng/ml human IL-6) [1]: < 60%
B4: scFv antibody derived from reference Antibody 3 (binding to IL-6), fused with an Fc fragment of human IgG1 (Fc fusion, not shown: a dimerising Fc or GST)
scFv: QIVLIQSPAIMSASPGEKVTMTCSASSSVSYMYWYQQKPGSSPRLLIYDTSNLASGVPVRFSGSGSGTSYSLTISRMEAEDAATYYCQQWSGYPYTFGGGTKLEIKGGGGSGGGGSGGGGSEVQLVESGGKLLKPGGSLKLSCAASGFTFSSFAMSWFRQSPEKRLEWVAEISSGGSYTYYPDTVTGRFTISRDNAKNTLYLEMSSLRSEDTAMYYCARGLWGYYALDYWGQGTSVTVSS
